# Numbering of substitutions follows the chain as printed.
# B1: PAH2 target (dsDNA)
# DNA 1: TTCAGTTTGTTATATATGTGTCTATTAAGTTAGATTGTGAGCTCCTAAAAGA
# DNA 2: TCTTTTAGGAGCTCACAATCTAACTTAATAGACACATATATAACAAACTGAA
# B2: PAH3 target (dsDNA)
# DNA 1: TGCTTCATAGGGTAGTTCTAAAGATTAAATCACTTAATGCATGTGATCTAAA
# DNA 2: TTTAGATCACATGCATTAAGTGATTTAATCTTTAGAACTACCCTATGAAGCA
# Columns and labels:
# Conditions in all cases: tags: 3xFlag, SV40 NLS
# PAH2 Left TAL-PBx = molecular target: T1, PAH2 Left TAL-PBx (synthetic construct); assay: cell_activity; left only
# T1 chain: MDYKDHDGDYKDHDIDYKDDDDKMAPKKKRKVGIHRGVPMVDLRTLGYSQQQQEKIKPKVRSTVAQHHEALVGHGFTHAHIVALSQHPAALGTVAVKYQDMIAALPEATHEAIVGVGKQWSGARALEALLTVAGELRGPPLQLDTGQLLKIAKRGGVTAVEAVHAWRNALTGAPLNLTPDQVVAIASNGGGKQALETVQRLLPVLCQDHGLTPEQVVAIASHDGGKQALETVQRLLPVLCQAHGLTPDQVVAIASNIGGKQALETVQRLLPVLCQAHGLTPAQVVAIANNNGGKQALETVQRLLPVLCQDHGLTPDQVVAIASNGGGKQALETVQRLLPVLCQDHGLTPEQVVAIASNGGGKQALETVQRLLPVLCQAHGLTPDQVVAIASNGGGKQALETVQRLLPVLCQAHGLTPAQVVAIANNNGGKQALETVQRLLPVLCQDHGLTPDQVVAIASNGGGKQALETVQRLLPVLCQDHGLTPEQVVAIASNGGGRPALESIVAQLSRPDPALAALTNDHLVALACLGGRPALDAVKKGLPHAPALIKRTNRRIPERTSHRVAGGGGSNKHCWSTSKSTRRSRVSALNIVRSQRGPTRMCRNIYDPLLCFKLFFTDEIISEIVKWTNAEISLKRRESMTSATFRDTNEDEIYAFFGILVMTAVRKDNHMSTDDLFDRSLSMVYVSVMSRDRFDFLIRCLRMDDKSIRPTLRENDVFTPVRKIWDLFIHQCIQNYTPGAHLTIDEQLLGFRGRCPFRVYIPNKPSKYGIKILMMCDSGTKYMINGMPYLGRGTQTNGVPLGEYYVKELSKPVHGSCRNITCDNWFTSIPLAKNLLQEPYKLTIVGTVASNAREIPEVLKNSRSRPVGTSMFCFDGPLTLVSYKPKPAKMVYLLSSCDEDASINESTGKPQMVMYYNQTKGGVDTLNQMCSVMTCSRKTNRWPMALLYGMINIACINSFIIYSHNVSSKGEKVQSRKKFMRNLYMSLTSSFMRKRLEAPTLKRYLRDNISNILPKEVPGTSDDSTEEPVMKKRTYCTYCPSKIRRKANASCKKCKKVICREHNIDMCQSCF
# PAH2 Right TAL-PBx = molecular target: T2, PAH2 Right TAL-PBx (synthetic construct); assay: cell_activity; right only
# T2 chain: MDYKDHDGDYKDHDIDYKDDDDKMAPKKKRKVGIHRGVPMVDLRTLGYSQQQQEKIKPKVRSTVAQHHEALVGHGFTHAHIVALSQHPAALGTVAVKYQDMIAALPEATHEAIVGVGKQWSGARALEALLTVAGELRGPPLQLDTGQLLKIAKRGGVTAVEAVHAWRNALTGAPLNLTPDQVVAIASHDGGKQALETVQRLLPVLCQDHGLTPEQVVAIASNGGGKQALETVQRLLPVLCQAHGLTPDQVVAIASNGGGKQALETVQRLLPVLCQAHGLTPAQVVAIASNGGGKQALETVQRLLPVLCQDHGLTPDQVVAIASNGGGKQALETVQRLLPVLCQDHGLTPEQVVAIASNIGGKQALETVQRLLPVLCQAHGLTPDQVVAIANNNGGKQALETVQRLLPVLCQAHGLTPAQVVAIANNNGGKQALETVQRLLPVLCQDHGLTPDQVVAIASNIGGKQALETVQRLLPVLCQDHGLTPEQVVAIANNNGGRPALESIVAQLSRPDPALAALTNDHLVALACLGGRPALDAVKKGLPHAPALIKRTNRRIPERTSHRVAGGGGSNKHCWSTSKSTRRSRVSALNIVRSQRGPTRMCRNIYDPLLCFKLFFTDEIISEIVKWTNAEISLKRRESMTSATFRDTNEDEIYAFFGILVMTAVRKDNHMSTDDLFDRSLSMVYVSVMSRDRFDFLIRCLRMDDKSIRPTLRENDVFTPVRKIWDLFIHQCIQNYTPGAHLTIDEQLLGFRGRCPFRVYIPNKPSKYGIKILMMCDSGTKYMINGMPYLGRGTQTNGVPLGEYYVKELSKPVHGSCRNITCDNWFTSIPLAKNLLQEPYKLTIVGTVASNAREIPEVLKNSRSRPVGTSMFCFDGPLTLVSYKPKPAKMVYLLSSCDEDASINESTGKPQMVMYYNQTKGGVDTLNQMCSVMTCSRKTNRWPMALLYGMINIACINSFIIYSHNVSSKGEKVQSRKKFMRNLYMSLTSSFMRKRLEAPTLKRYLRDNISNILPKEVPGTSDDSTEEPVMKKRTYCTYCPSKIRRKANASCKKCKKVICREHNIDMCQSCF
# PAH3 Left TAL-PBx = molecular target: T3, PAH3 Left TAL-PBx (synthetic construct); assay: cell_activity; left only
# T3 chain: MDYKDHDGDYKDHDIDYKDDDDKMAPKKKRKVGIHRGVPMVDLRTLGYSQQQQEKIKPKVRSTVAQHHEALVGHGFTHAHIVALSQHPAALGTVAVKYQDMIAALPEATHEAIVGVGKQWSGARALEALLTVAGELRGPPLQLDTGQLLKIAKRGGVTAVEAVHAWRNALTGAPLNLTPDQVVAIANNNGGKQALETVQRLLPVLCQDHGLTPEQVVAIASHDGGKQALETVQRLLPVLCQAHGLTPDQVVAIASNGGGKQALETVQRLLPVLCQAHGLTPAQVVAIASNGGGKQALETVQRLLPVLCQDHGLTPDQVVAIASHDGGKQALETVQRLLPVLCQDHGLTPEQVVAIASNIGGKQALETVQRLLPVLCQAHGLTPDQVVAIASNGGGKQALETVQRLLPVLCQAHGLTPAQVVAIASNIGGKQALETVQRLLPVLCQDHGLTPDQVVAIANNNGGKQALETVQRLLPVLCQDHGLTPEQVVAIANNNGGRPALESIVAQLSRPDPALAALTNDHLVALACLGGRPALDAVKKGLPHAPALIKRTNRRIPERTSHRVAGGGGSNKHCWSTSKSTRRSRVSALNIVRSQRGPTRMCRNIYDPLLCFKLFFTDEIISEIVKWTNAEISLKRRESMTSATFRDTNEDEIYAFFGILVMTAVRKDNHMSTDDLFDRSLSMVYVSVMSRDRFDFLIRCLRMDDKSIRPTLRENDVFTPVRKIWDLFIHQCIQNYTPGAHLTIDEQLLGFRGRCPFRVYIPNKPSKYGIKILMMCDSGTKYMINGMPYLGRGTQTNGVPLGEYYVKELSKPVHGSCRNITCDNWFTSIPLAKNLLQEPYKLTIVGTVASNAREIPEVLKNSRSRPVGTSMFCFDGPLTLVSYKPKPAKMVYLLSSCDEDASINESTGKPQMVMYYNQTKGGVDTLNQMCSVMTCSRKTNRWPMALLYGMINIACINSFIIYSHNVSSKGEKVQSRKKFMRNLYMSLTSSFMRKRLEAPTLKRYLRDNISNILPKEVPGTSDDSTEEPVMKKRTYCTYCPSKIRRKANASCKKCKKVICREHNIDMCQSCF
# PAH3 Right TAL-PBx = molecular target: T4, PAH3 Right TAL-PBx (synthetic construct); assay: cell_activity; right only
# T4 chain: T1 chain with H222N, D223G, G325I, N392H, G393D, N425S, N427I, N460H, G461D, G495I
Binder,activity (PAH2 Left TAL-PBx),activity (PAH2 Right TAL-PBx),activity (PAH3 Left TAL-PBx),activity (PAH3 Right TAL-PBx)
B1,8.8 % GFP+,7 % GFP+,–,–
B2,–,–,6.8 % GFP+,5.7 % GFP+

# Source: patent US20240392262A1, “TRANSPOSASE AND USES THEREOF” (Poseida Therapeutics, Inc., published 2024)
